# Columns and labels:
# acetylcholine receptor [1] = assay: SPR, AchR immobilized on CM5 chip, peptide at 10 uM
# acetylcholine receptor [2] = assay: SPR, AchR immobilised on CM5 chip, peptide 10 uM
Binder,Binding affinity (RU) (acetylcholine receptor [1]),Binding affinity (RU) (acetylcholine receptor [2])
RKKTIR [6mer-1-806],12 RU,
RKYHGR [6mer-1-802],32 RU,
RNAVKK [6mer-2-764],,31 RU
KFEERK [6mer-2-762],,24 RU
RRIHKK [6mer-1-829],25 RU,
KADGRR [6mer-2-754],,12 RU
KRMHAK [6mer-1-819],17 RU,
KIPVKK [6mer-2-760],,15 RU
KRDPFR [6mer-1-804],31 RU,
KKAHMR [6mer-1-826],31 RU,
RRKKKR [6mer-1-799],30 RU,
RRIMKR [6mer-1-817],16 RU,
RFDEKK [6mer-2-759],,18 RU
KPTNRK [6mer-2-756],,26 RU
RKIKAR [6mer-1-818],14 RU,
RKEKWK [6mer-1-825],30 RU,
RFSFKK [6mer-2-758],,18 RU
KRDTMK [6mer-1-805],24 RU,
RKIDFK [6mer-1-816],14 RU,
KKMNIK [6mer-1-824],12 RU,
RKKKFR [6mer-1-827],30 RU,
RKCNAR [6mer-1-810],12 RU,
KKNPWK [6mer-1-831],15 RU,
RKMKHK [6mer-1-803],31 RU,

Binder,Binding affinity (RU) (acetylcholine receptor [1]),Binding affinity (RU) (acetylcholine receptor [2])
KMKERR [6mer-2-763],,19 RU
KRNDGK [6mer-1-820],12 RU,
KKTTMK [6mer-1-830],33 RU,
RREDFK [6mer-1-813],15 RU,
RIPNKR [6mer-2-757],,19 RU
RICGRK [6mer-2-767],,13 RU
RKDHMK [6mer-1-812],26 RU,
RPTFRK [6mer-2-766],,23 RU
KREPIK [6mer-1-822],17 RU,
RRTTNR [6mer-1-821],22 RU,
KHSPRK [6mer-2-765],,23 RU
RRFEMR [6mer-1-815],23 RU,
KRHTGK [6mer-1-823],12 RU,
KKCNAK [6mer-1-814],15 RU,
RTEPRK [6mer-2-761],,29 RU
RRDKNR [6mer-1-807],13 RU,
RRFEKK [6mer-1-808],24 RU,
RREHIR [6mer-1-800],15 RU,
KKCAVK [6mer-1-801],18 RU,
RYNDKK [6mer-2-755],,18 RU
KRHCHK [6mer-1-811],16 RU,
KKKSNR [6mer-1-809],12 RU,
RRPNMK [6mer-1-828],26 RU,

# Second part, the binder after the results:
Binding affinity (RU) (acetylcholine receptor [1]),Binding affinity (RU) (acetylcholine receptor [2]),Binder
,32 RU,RDMVRK [6mer-2-783]
,24 RU,KNENRK [6mer-2-789]
,26 RU,KITARR [6mer-2-771]
,13 RU,KAAHRR [6mer-2-779]
,19 RU,RIWHKK [6mer-2-787]
,30 RU,KKEKKK [6mer-2-788]
,30 RU,RMEMRK [6mer-2-786]
,21 RU,RNAPKK [6mer-2-778]
,31 RU,RHCHRR [6mer-2-785]
,24 RU,KPNMKK [6mer-2-770]
,15 RU,RHPAKK [6mer-2-772]
,16 RU,RTHNKR [6mer-2-795]
,13 RU,RAEDKR [6mer-2-792]
,29 RU,RMHKKR [6mer-2-793]
,19 RU,RHCIKR [6mer-2-797]
,32 RU,RMMARR [6mer-2-796]

Binding affinity (RU) (acetylcholine receptor [1]),Binding affinity (RU) (acetylcholine receptor [2]),Binder
,12 RU,RFPWRK [6mer-2-776]
,26 RU,KMSMKK [6mer-2-775]
,28 RU,KTMNRK [6mer-2-781]
,26 RU,KAEWRK [6mer-2-784]
,13 RU,RCPFRK [6mer-2-769]
,27 RU,KNMNRK [6mer-2-791]
,19 RU,KAEMRR [6mer-2-794]
,23 RU,RCAGRR [6mer-2-790]
,31 RU,KNDVRR [6mer-2-777]
,22 RU,KYMGRK [6mer-2-768]
,11 RU,KPDARR [6mer-2-773]
,17 RU,RDTPKK [6mer-2-798]
,17 RU,KFDARK [6mer-2-774]
,31 RU,KITIRK [6mer-2-780]
,18 RU,KPWPKR [6mer-2-782]
